Several values for one entry are separate records, joined by “and”; a condition that tells them apart may be missing. Equal values may be shown once.
B1: KPEP11_08 (antibody)
heavy: QSLEESGGRLVTPGTPLTLTCTVSGFSLSSYHMSWVRQAPGKGLEWIGIIYRSGNTYYANWAKGRFTISKTSTTVDLKITSPTTEDTATYFCARESSTFYGMDLWGPGTLVTVSSGAPKAPSVFPLAPCCGDTPSSTVTLGCLVKGYLPEPVTVTWNSGTLTNGVRTFPSVRQSSGLYSLSSVVSVTSSSQPVTCNVAHPATNTKVDKTVAPSTCSKPTCPPPELLGGPSVFIFPPKPKDTLMISRTPEVTCVVVDVSQDDPEVQFTWYINNEQVRTARPPLREQQFNSTIRVVSTLPITHQDWLRGKEFKCKVHNKALPAPIEKTISKARGQPLEPKVYTMGPPREELSSRSVSLTCMINGFYPSDISVEWEKNGKAEDNYKTTPAVLDSDGSYFLYNKLSVPTSEWQRGDVFTCSVMHEALHNHYTQKSISRSPGK
light: DPVLTQTASSVSAAVGGTVTINCQASQSVYGNNELAWYQQKPGQPPKLLIYTASSLASGVPSRFKGSGSGTEFTLTISDLECADAATYYCLGYKSDDYTFGGGTEVVVKGAPVAPTVLIFPPAADQVATGTVTIVCVANKYFPDVTVTWEVDGTTQTTGIENSKTPQNSADCTYNLSSTLTLTSTQYNSHKEYTCKVTQGTTSVVQSFNRGDC
notes: Rabbit IgG/kappa; Used HRP-labeled as detection antibody in the sandwich ELISAs; also called anti-human EphA4 rabbit monoclonal antibody KPEP11_08; HRP-labeled KPEP11_08
B2: KPEP11_10 (antibody)
heavy: QSLEESGGRLVTPGTPLTLTCTVSGFSLSSYHMSWVRQAPGKGLEWIGIIYRSGNTYYANWAKGRFTISKTSTTVDLKITSPTTEDTATYFCARESSTFYGMDLWGPGTLVTVSSGAPKAPSVFPLAPCCGDTPSSTVTLGCLVKGYLPEPVTVTWNSGTLTNGVRTFPSVRQSSGLYSLSSVVSVTSSSQPVTCNVAHPATNTKVDKTVAPSTCSKPTCPPPELLGGPSVFIFPPKPKDTLMISRTPEVTCVVVDVSQDDPEVQFTWYINNEQVRTARPPLREQQFNSTIRVVSTLPITHQDWLRGKEFKCKVHNKALPAPIEKTISKARGQPLEPKVYTMGPPREELSSRSVSLTCMINGFYPSDISVEWEKNGKAEDNYKTTPAVLDSDGSYFLYNKLSVPTSEWQRGDVFTCSVMHEALHNHYTQKSISRSPGK
light: AIKMTQTPSSVSAAVGGTVTINCQASQSVYGNNELAWYQQKPGQPPKLLIYTASSLASGVPSRFKGSGSGTEFTLTISDLECADAATYYCLGYKSDDYTFGGGTEVVVKGAPVAPTVLIFPPAADQVATGTVTIVCVANKYFPDVTVTWEVDGTTQTTGIENSKTPQNSADCTYNLSSTLTLTSTQYNSHKEYTCKVTQGTTSVVQSFNRGDC
notes: Rabbit IgG/kappa; Used coated or HRP-labeled in the sandwich ELISAs; also called anti-human EphA4 rabbit monoclonal antibody KPEP11_10; HRP-labeled KPEP11_10
B3: KPEP11_13 (antibody, V domains shown)
VH: QSLEESGGRLVTPGTPLTLTCTVSGFSLSSYHMSWVRQAPGKGLEWIGIIYRSGNTYYANWAKGRFTISKTSTTVDLKITSPTTEDTATYFCARESSTFYGMDLWGPGTLVTVSS
VL: YVMMTQTPSSVSAAVGGTVTINCQASQSVYGNNELAWYQQKPGQRPKLLIYRASTLASGVPSRFKGSGSGTEFTLTISDLECADAATYYCLGYKSDDYTFGGGTKVEIKG
notes: Rabbit IgG; also called anti-human EphA4 rabbit monoclonal antibody KPEP11_13
B4: KPEP11_18 (antibody, V domains shown)
VH: QSLEESGGRLVTPGTPLTLTCTISGFSLSSFYINWVRQAPGRGLEWIGIIYPDIDATDYASWVKGRFTISKTSTTVDLKITSPTTEDTATYFCARSDVDYYTTRLDLWGQGTLVTVSS
VL: DPMMTQTASPVSAAVGGTVSISCQSNKSVYSNWLSWFQQKPGQPPKLLIYGASTLASGVPSRFKGSGSGTQFTLTVSDVQCDDAATYFCLGGYRDNSDNAFGGGTEVVVKG
notes: Rabbit IgG/kappa; Used coated or HRP-labeled in the sandwich ELISAs; also called anti-human EphA4 rabbit monoclonal antibody KPEP11_18; HRP-labeled KPEP11_18
B5: KPEP11_20 (antibody, V domains shown)
VH: QSLEESGGRLVTPGTPLTLTCTVSGFSLNNYYMNWVRQAPGKGLEWIGIIYPDIDTTDYASWVKGRFTISKTSTTVDLKITSPTTEDTATYFCARSDIDYYTTRLDLWGQGTLVTISS
VL: AQVLTQTPSPVSAAVGGTVSINCQSSPSVYNNNWLSWFQQKPGQPPKLLIYGASTLASGVPSRFKGSGSGTQFTLTISDVQCDDAATYYCAGGYDSNSDTAFGGGTELEILG
notes: Rabbit IgG; also called anti-human EphA4 rabbit monoclonal antibody KPEP11_20

What was measured:
[1] = target: T1, human EphA4 extracellular domain-MBP-His protein (human); test: SPR Biacore T200, EphA4 ECD-MBP-His captured by anti-His antibody, antibody as analyte, 1:1 model
T1 construct: also called human EphA4 extracellular domain (ECD); Human EphA4 extracellular domain-MBP-His 10
Method: (§1) The binding affinity of KPEP11_04, KPEP11_08, KPEP11_10, and KPEP11_18 against human EphA4 was determined by the surface plasmon resonance method (SPR method) employing Biacore T200 (Cytiva). First, an anti-His antibody (Cytiva, 28-9950-56) was diluted to 10 μg/mL with the immobilizing buffer (10 mM sodium acetate, pH 4.5), and immobilized onto a sensor chip CM5 according to the protocol attached to Biacore T200. Immobilization was performed by the amine coupling method employing N-hydroxysuccinimide (NHS) and N-ethyl-N′-(3-dimethylaminopropyl) carbodiimide hydrochloride salt (EDC), and ethanolamine was employed for blocking (sensor chips or immobilizing reagents were all from Cytiva). Human EphA4 extracellular domain-MBP-His 10 was diluted with a running buffer HBS-EP+ (Cytiva), and pumped onto a flow cell for 120 seconds to allow capturing (captured amount of about 3 RU). […] At the end of each observation, 10 mM glycine hydrochloric acid pH 1.5 (60 seconds) and 3 M MgCl₂ (30 seconds) were added to regenerate the sensor chips. Fitting analysis by the 1:1 binding model employing the BIA evaluation software attached to the system was performed against the binding reaction curves obtained to calculate the binding affinity against human EphA4 (KD=kd/ka). The experiment described above was carried out three times, and the mean was calculated for each parameter.

Mouse = target: T2, Mouse; test: ELISA
T2 construct: also called mouse EphA4 extracellular domain-SEAP-His protein
Method: (§2) For the anti-human EphA4 monoclonal antibodies produced in Example 1, evaluation of binding activity to various EphA4 was performed according to the following steps. Mouse anti-6-His antibodies (R&D) were coated on the wells of a 96-well plate (Thermo […]). After incubating at room temperature for 1 hour, the wells were blocked at 4° C. overnight with 1% Block Ace (KAC). After washing three times with 0.02% Tween 20/PBS, the wells were seeded with mouse EphA4 extracellular domain-SEAP-His protein, rat EphA4 extracellular domain-SEAP-His protein, rabbit EphA4 extracellular domain-SEAP-His protein, monkey EphA4 extracellular domain-SEAP-His protein, human EphA4 extracellular domain-SEAP-His protein, or SEAP-His protein (final concentration 1 nM), and this was incubated at room temperature for 1 hour. After washing three times, anti-human EphA4 rabbit monoclonal antibody (10 pg/mL) was added, and this was incubated at room temperature for about 1 hour. After washing three times, horseradish peroxidase labeled goat anti-rabbit IgG polyclonal antibody (abcam) was added, and this was incubated at room temperature for 1 hour. After washing three times, TMBZ (3,3′,5,5′-tetramethylbenzidine, KPL) solution was added to the wells, and this was incubated for 3 minutes at room temperature. Equal amounts of quenching solution (2 N H₂SO₄, FUJIFILM Wako) were added to the wells, and absorbance at 450 nm and 650 nm were read with a microplate reader (Thermo […]).

Rabbit = target: T3, Rabbit; test: ELISA
T3 construct: also called rabbit EphA4 extracellular domain-SEAP-His protein
Method: as §2

Rat = target: T4, Rat; test: ELISA
T4 construct: also called rat EphA4 extracellular domain-SEAP-His protein
Method: as §2

[2] = target: T5, human EphA4 extracellular domain-SEAP-His protein (human); test: ELISA
Method: as §2

SEAP = target: T6, SEAP; test: ELISA
T6 construct: negative control antigen; also called SEAP-His protein
Method: as §2

[3] = target: T1, human EphA4 extracellular …; test: SPR Biacore T200, EphA4 ECD-MBP-His captured by anti-His antibody, antibody as analyte, 1:1 model, mean of three
Method: as §1

MBP = test: ELISA
Method: (§3) For the anti-human EphA4 monoclonal antibodies produced in Example 1, evaluation of binding activity to various EphA4 was performed according to the following steps. Mouse anti-6-His antibodies (R&D) were coated on the wells of a 96-well plate (Thermo […]). After incubating at room temperature for 1 hour, the wells were blocked at room temperature for 1 hour with 1% Block Ace (KAC). After washing three times with 0.02% Tween 20/PBS, the wells were seeded with human EphA4 extracellular domain-MBP-His protein, human EphA4 ligand binding domain-MBP-His protein, human EphA4 fibronectin III-type domain 1-MBP-His protein, human EphA4 fibronectin III-type domain 2-MBP-His protein, or MBP-His protein (final concentration 1 nM), and this was incubated at room temperature for 1 hour. After washing three times, anti-human EphA4 rabbit monoclonal antibody (10 pg/mL) was added, and this was incubated at room temperature for 1 hour. After washing three times, horseradish peroxidase labeled goat anti-rabbit IgG polyclonal antibody (abcam) was added, and this was incubated at room temperature for 1 hour. After washing three times, TMBZ (3,3′,5,5′-tetramethylbenzidine, KPL) solution was added to the wells, and this was incubated for four and a half minutes at room temperature. Equal amounts of quenching solution (2 N H₂SO₄, FUJIFILM Wako) were added to the wells, and absorbance at 450 nm and 650 nm were read with a microplate reader (Thermo […]).

[4] = target: T1, human EphA4 extracellular …; test: ELISA
Method: as §3

FN1 = test: ELISA
Method: as §3

[5] = target: human EphA4 ligand binding domain-MBP-His protein (human, UniProt P54764 20-209; P0AEX9 29-392 = MBP); test: ELISA
Method: as §3

FN2 = test: ELISA
Method: as §3

[6] = target: T7, monkey EphA4 extracellular domain-SEAP-His protein (monkey); test: ELISA
T7 construct: the fusion as a whole has none; not shown: SEAP-His part

[7] = target: T5, human EphA4 extracellular …; test: ELISA; remark: listed apart in the source
[8] = target: T7, monkey EphA4 extracellular …; test: ELISA; remark: listed apart in the source
Method: as §2

T7 sequence (chain, as listed by the source): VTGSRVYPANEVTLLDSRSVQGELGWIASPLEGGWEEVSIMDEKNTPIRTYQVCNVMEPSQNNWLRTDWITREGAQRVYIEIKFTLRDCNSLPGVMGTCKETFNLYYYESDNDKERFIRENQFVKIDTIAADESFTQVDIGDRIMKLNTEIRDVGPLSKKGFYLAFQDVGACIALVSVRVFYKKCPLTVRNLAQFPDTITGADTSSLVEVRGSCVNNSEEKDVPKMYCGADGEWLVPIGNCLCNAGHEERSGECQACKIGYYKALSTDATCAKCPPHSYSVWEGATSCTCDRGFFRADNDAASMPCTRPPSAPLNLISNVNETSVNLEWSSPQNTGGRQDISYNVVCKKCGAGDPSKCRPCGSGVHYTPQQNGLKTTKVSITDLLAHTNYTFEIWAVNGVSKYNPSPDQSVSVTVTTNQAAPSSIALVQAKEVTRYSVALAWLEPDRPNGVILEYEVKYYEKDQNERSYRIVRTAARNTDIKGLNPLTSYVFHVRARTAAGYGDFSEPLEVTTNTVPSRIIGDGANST
T5 sequence (chain, as listed by the source limits assumed): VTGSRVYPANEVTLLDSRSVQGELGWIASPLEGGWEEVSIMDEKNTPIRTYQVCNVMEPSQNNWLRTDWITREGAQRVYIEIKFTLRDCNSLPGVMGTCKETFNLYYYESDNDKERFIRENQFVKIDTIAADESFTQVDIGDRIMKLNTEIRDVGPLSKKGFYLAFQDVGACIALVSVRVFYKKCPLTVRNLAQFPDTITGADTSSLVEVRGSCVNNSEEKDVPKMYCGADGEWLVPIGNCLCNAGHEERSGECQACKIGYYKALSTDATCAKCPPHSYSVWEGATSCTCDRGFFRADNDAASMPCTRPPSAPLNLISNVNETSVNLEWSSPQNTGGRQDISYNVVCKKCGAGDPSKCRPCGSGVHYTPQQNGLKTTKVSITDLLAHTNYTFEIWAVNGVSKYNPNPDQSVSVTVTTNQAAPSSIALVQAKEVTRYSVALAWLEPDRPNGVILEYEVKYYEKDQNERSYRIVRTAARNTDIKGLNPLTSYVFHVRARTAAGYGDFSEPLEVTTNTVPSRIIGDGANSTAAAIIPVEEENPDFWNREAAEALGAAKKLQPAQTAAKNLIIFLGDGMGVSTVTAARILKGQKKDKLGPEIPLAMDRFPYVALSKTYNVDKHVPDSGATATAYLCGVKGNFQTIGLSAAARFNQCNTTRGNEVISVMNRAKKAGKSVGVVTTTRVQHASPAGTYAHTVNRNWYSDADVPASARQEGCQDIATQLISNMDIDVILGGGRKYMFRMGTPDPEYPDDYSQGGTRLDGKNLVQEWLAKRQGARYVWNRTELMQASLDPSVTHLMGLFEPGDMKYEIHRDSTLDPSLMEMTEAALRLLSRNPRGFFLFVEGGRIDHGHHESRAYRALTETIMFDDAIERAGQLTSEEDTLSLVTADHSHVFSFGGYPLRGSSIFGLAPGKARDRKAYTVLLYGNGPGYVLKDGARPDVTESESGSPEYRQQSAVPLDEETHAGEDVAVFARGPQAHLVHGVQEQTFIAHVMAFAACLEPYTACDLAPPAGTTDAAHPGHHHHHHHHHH

Binder	Kd [1]	koff [1]	kon [1]	absorbance (Mouse)	absorbance (Rabbit)	absorbance (Rat)	absorbance [2]	absorbance (SEAP)	Kd [3] [pM]	koff [3] [s⁻¹]	kon [3] [M⁻¹ s⁻¹]	absorbance (MBP)	absorbance [4]	absorbance (FN1)	absorbance [5]	absorbance (FN2)	EC50 (read off the curve) [6] [pM]	EC50 (read off the curve) [7] [pM]	absorbance [8]
B1	1510 pM and 1660 pM and 1360 pM	0.00214 s⁻¹	1.42e+06 M⁻¹ s⁻¹ and 1.24e+06 M⁻¹ s⁻¹ and 1.58e+06 M⁻¹ s⁻¹	0.071	0.057	0.065	1.15	0.072	1510	0.00217	1.44e+06	0.3	1.31	0.283	0.292	0.265	~20	~20	
B2	1360 pM and 1230 pM	0.00196 s⁻¹ and 0.00198 s⁻¹	1.44e+06 M⁻¹ s⁻¹ and 1.58e+06 M⁻¹ s⁻¹		0.091	0.087	1.17	0.087	1300	0.00196	1.52e+06	0.334	1.35	0.329	0.34	0.325	~20	~20	1.11
B3				0.082	0.083	0.086	1.18	0.099				0.402	1.31	0.318	0.348	0.36			1.17
B4	416 pM and 382 pM	0.00128 s⁻¹ and 0.00137 s⁻¹ and 0.00127 s⁻¹	3.06e+06 M⁻¹ s⁻¹ and 3.32e+06 M⁻¹ s⁻¹ and 3.44e+06 M⁻¹ s⁻¹		0.059	0.067	1.23	0.054	389	0.00127			1.42	0.222	1.43		~10	~10	1.18
B5				0.052	0.046	0.062	1.16	0.067				0.274	1.26	0.207	1.42	0.238			1.15

Reference: US20240385190A1 (EISAI R AND D MANAGEMENT, published 2024)
